# From the nanobody polyreactivity screen of Harvey et al. (2022)
# Test: yeast display, Sf9 membrane polyspecificity reagent, FACS + sequencing; frameworks hold sequencing errors
# In short: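 Using colony PCR, genes from sorted yeast display clones were amplified, then sequenced on MiSeq at 2 × 250 and filtered by CDR length. The clones had been stained with 10% biotinylated, detergent-solubilized Sf9 membrane reagent for 1 hour at 4 °C and sorted by FACS into low and high (top ~1%) gates on anti-HA and streptavidin fluorescence. Polyreactivity labels come from the gate of origin.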
row,Sequence,polyreactivity (PSR sort gate)
1,QVQLVESGGGLVQAGGSLRLSCAASGSIFRVYALGWSRQAPGKERELVAAISSSGGSTYYADSVKGRFTISRDNAKNTVYLQMNSLKPEDTAVYYCAAEYDGPYTWVDYYYHYGYWGQGTQVTVSS,low polyreactivity
2,QVQLVESGGGLVQAGGSLRLSCAASGSIFRVYAMGRYRQAPGKEREFVAAISYSTGSTYADSVKGRFTISRDNAKNTVYLQMNSLKPEDTAVYYCNARLRYGSRDEYDYWGQGTQVTVSS,low polyreactivity
3,QVQLVESGGGLVQAGGSLRLSCAASGSIFRVYAMGWYRQAPGKEREFVAAITRRGTRTYYADSVKGRFTISRDNAKNTDYLQMNSLKPEDTAVYYCAAYFTDGLYEYWGQGTQVTVSS,low polyreactivity
4,QVQLVESGGGLVQAGGSLRLSCAASGSIFRVYAMGWYRQAPGKEREFVAAITRRGTRTYYADSVKGRFTISRDNAKNTVYLQMNSLKPEDTAVYYCAAYFTEGLYEYWGQGTQVTLSS,low polyreactivity
5,QVQLVESGGGLVQAGGSLRLSCAASGSIFRVYAMGWYRQAPGKERELVAVITWTGGITYYADSVKGRFTISRDNAKNTVYLQMNSLKPEDTAVYYCNADLLTFAIKAPTGFYYWGQGTQVTVSS,high polyreactivity
6,QVQLVESGGGLVQAGGSLRLSCAASGSIFRVYGMGWHRQAPGKERELVAAITWSGGSTYYADSVKGRFTISRDNAKNTVYLQMNSLKPEDTAVSYCAARARPRYYRPPYDYWGQGTQVTVSS,high polyreactivity
7,QVQLVESGGGLVQAGGSLRLSCAASGSIFRYNAMGWYRQAPGKERELVAAISGRGTSTYYADSVKGRFTISRDNAKNTVYLQMNSLKPEDTAVYYCAAVYFRTFLVEYYYWGQGTQVTVSS,high polyreactivity
8,QVQLVESGGGLVQAGGSLRLSCAASGSIFRYNAMGWYRQAPGKERELVAAITSGDSTYYADSVKGRFTISRDNAKNTVYLQMNSLKPEDTAVYYCAADLRYIYWSYYYWGQGTQVTVSS,low polyreactivity
9,QVQLVESGGGLVQAGGSLRLSCAASGSIFRYNTMGWYRPAPGKERELVATITRRGGSTYYADSVKGRFTISRDNAKNTVYLQMNSLKPEDTAVYYCIADNFGGPYNYWGQGTQVTVSS,low polyreactivity
10,QVQLVESGGGLVQAGGSLRLSCAASGSIFRYYAMGAYRQAPGKARELVAAISIRGGRTYYADSVKGRFTISRDNAKNTVYLQMNSLKPEDTAVYYCATAFGFTAKYYYWGQGTQVTVSS,high polyreactivity
11,QVQLVESGGGLVQAGGSLRLSCAASGSIFRYYAMGLYRQAPGKERVLVAAFSGSGGITLYADSVKVRFSISRDNAKNTVYLQMNCLKPEDTAVYFCATRPGTRPAYDYWGQGTQVTVSS,high polyreactivity
12,QVQLVESGGGLVQAGGSLRLSCAASGSIFRYYAMGWYRPAPGKERELVAAISSGGNTKYADSVKGRFTISRDNAKNTVYLQMNSLKPADTAVYYCNAAGKACGDYDYWGQGTQVTVSS,low polyreactivity
13,QVQLVESGGGLVQAGGSLRLSCAASGSIFRYYAMGWYRQAPGKERELVAAISSGDSTNYADSVKGRFTISRDNAKNTVYLQMNSLKPEDTAVYYCAAGVVRGPGYYRKYYYWGQGTQVTVSS,high polyreactivity
14,QVQLVESGGGLVQAGGSLRLSCAASGSIFRYYAMGWYRQAPGKERELVAAITRRGGSTYYADSVKGRFTISRDNAKNTVYLQMNSLKPEDTAVYYCAASHGYQYEYWGQGTQVTVSS,high polyreactivity
15,QVQLVESGGGLVQAGGSLRLSCAASGSIFRYYAMGWYRQAPGKERELVAAITSGGSTSYADSVKGRFTISRDNAKNTVYLQMNSLKPEDTAVYYCAKRSRHNKYYYWGQGTQVTVSS,high polyreactivity
16,QVQLVESGGGLVQAGGSLRLSCAASGSIFRYYDMGWYRQAPGKERELVAAISDSTGTTYYADSVKGRFTISRDNAKNTVYLQMNSLKPEDTAVYYCTAGYDPRYDYWGQGTQVTVSS,high polyreactivity
17,QVQLVESGGGLVQAGGSLRLSCAASGSIFRYYVMGWYRHAPGKERELVAAISGGSTYYADSVKGRFTISRDNAKNTVYLQMNSLKPEDTAVYYCAARGKRRSGGENYAYGYWGQGTQVTVSS,high polyreactivity
18,QVQLVESGGGLVQAGGSLRLSCAASGSIFRYYVMGWYRQAPGKERELVAAISWSGGTTYYADSVKGRFTISRDNAKNTVYLQMNSLKPEDTAVYYCAAKGPLGYYHATDYHDYWGQGTQVTVSS,high polyreactivity
19,QVQLVESGGGLVQAGGSLRLSCAASGSIFSAKTMGWYRQAPGKERELVAAISSSGGRTYYADSVKGRFTISRDHAKNTVYLQMNSLKPEDTAVYYSNARSRYHVTPYSGVTGYDYWGQGTQVTVSS,high polyreactivity
20,QVQLVESGGGLVQAGGSLRLSCAASGSIFSANAMGWYRQAPGKERELVASITGDGSTNYADSVNGRFTISRDNAKNTVYLQMNSLKPEDTAVYYCAVDRGRRGMDYWGQGTQVTVSS,low polyreactivity
21,QVQLVESGGGLVQAGGSLRLSCAASGSIFSAYSMGSYRQAHGKEREFVAAISKSGSSTYYADSVKGRFTISRDNAKNTVYLQMNSLKPEDTAVYYCAAESSSYYGYYIYYYWGQGTQVTVSS,high polyreactivity
22,QVQLVESGGGLVQAGGSLRLSCAASGSIFSDYAKGWYRQAPVKERELVAVITSGGRTNYADSLKGRFTISRDNAKNTVYLQMNSLKPEDTAVFYWNAYVHSRRVEFNYWGQGTQVTVSS,high polyreactivity

row,Sequence,polyreactivity (PSR sort gate)
1,QVQLVESGGGLVQAGGSLRLSCAASGSIFSDYAMGWYRQAPGTERELVAAITEGGDSTYYADSVKGRFTISRDNAKNTVYLQMNSLKPEDTAVYSCAAEVYQLFTSPFDYWGQGTQVTVSS,low polyreactivity
2,QVQLVESGGGLVQAGGSLRLSCAASGSIFSENAMGWYRQAPGKERELVADITDGGGSTYYADSVKGRFTISRDNAKNTVYLQMNSLKPEDTAVYYCNAQIFFFAPWYYEYDYWGQGTQVTVSS,low polyreactivity
3,QVQLVESGGGLVQAGGSLRLSCAASGSIFSENTMGWYRQAPGKKRELVADITSGGSTNYADSVKGRFTISRDNAKNTVYLQMNSLKPEDTAVYYCNADWEAYKYNYWGQGTQVTVSS,low polyreactivity
4,QVQLVESGGGLVQAGGSLRLSCAASGSIFSFNAMGWYRPAPGKERELVAAISKSGGRTYYADSVKGRFTISRDNAKNTVYLQMNSLKPEDTAVYYCNVVSYYLYTPGDYWGQGTQVTVSS,high polyreactivity
5,QVQLVESGGGLVQAGGSLRLSCAASGSIFSFNAMGWYRQAPGKERELVAVITRNGGSTYYADSVKGRFTISRDNAKNTVYLQKNSLKPEDTAVYYCAKRLYRHIMGYWGQGTQVTVSS,high polyreactivity
6,QVQLVESGGGLVQAGGSLRLSCAASGSIFSFYAMGWSRQAPGKERELVASISYSGGTTFYADSVKGRFTISRDNAKNTVYLQMNSLKTEDTAVYYSAATCEPPQRGYVKDEFDYWGQVTQVTVSS,low polyreactivity
7,QVQLVESGGGLVQAGGSLRLSCAASGSIFSFYAMGWYRQAPGKERELVASITRRGGSTSYADSVKGRFTISRDNAKNTVYLQMNSLKPEDTAVYYCASESKFISVLRVGYYYVKFDYWGQGTQVTVSS,high polyreactivity
8,QVQLVESGGGLVQAGGSLRLSCAASGSIFSFYTMGWYRQAPGKERELVASISRSGGTTYYADSVKGRFTISRDNAKNTVYLQMNSLKPEDTAVYYCAVRQAKYGGAYYGYYYWGQGTQVTVSS,high polyreactivity
9,QVQLVESGGGLVQAGGSLRLSCAASGSIFSGYDMGWYRQAPGNERELVAVISWSTTSTYYADSVKGRFTISRDNAKNTVYLQMNSLKPEDTAVYYCNAEAYQYWEFDYWGQGSQVTVSS,low polyreactivity
10,QVQLVESGGGLVQAGGSLRLSCAASGSIFSGYMGWYRQAPGKDRELVATITSGGSTYADSVKGRFTISRDNAKNSVYLQMNILKPEDTAVYYCARPRPVIQYSGLHYDYWGQGTEVTVSS,low polyreactivity
11,QVQLVESGGGLVQAGGSLRLSCAASGSIFSGYTMGWYRQAPGKERELVAGISYRGGSTYYADSVKGRFTISRDNAKNTVYLQMNSLKPEDTAVYYCAARHSTLRGYWGQGTQVTVSS,high polyreactivity
12,QVQLVESGGGLVQAGGSLRLSCAASGSIFSGYVMGWYRQAPGKERELVAAITWSGGRTYYADSVKGRFTISRDNAKNTVYLQMNSLKPEDTAVYYCAKRKIKSSGYYYWGQGTQVTVSS,high polyreactivity
13,QVQLVESGGGLVQAGGSLRLSCAASGSIFSINTMGWYRQAPGKERELVAAITRSGSGTYYADSVKGRFTISRDNAKNTVYLQMNSLKPEDTAVYYCAKSTAVKPYAYRESGFIYDYWGQGTQVTVSS,low polyreactivity
14,QVQLVESGGGLVQAGGSLRLSCAASGSIFSINTMGWYRQAPRTERELVATITWSVGSTNYADSVKGRFTISRDNAKNSVYLQMNSLKPVDTAVYYCNAESFYDYNYWGEGTQVTVSS,low polyreactivity
15,QVQLVESGGGLVQAGGSLRLSCAASGSIFSIYAMGWYRQAPGKERDFVASITVTDGSTYYADSVKGRFTISRDIAKNTVYLQMNSLKPEDTAVYYCFADGWYALYEWLAVSGYYWGQGTQVTVST,low polyreactivity
16,QVQLVESGGGLVQAGGSLRLSCAASGSIFSKNAMGWYRQAPGKERELVAAITGGGSTYYADSVKGRFTISRDNAKNTVYLQMNSLKPEDTAVYYCAAEFYVWGQGTQVTVSS,low polyreactivity
17,QVQLVESGGGLVQAGGSLRLSCAASGSIFSKYAMGWYRQAPGKEREFVAAISRSGGRTYYADSVKGRFTISRDNAKNTVYLQMNSLKPEDTAVYYCAAYPYNPRRRTEGDYWGQGTQVTVSS,high polyreactivity
18,QVQLVESGGGLVQAGGSLRLSCAASGSIFSLNAMGWYRQAPGKERELVAAISGRGGSTYYADSVKGRFTISRDNAKNTVYLQMNSLKPEDTAVYYCAARFSRTFLGYYYWGQGTQVTVSS,high polyreactivity
19,QVQLVESGGGLVQAGGSLRLSCAASGSIFSLYAMGWYRQAPGKERELVAAITTSGGRTYYADSVKGRFTISRDNAKNTVYLQMNSLKPVDTAVYYCAKRYSTPYLTDNFLSGPGYYYWGQGTQVTVSS,high polyreactivity
20,QVQLVESGGGLVQAGGSLRLSCAASGSIFSNYAMGWYRQAPGKERELVAAISRSGGSTRYADSVKGRFTISRDNAKNTVYLQMNSLKPEDTAVYYCNAVRYPRLMYYWGQGTQVTVSS,high polyreactivity
21,QVQLVESGGGLVQAGGSLRLSCAASGSIFSPNAMGWYRQAPGKERELVASITNGGSTYYADSVKGRFTISRDNAKNTVYLQMNSLKPEDTAVYYCAADHNETGLRVKVYEYDYWGQGTQVTVSS,low polyreactivity
